# Data taken from the supplement of paper PMC12042874.
# ± gives the uncertainty stated by the source.
# Experiment: amyloid nucleation score (Sup35N fusion, yeast selection) (log enrichment); library NNK3; higher = more nucleation; inactive = no reads after selection
# Outline: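 Peptides of 20 random codons fused to Sup35N were expressed in psi-negative yeast, induced 24 hours with 100 μM copper sulfate, then grown 7 days at 30°C on medium lacking adenine and uracil. Input and output plasmid inserts were Illumina-sequenced. Nucleation score is the DiMSum log enrichment of output over input reads, centred on the mode score of non-aggregating sequences, excluding sequences with under 100 input reads. Random libraries had three technical output replicates.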
row,Substance,amyloid nucleation score
1,VLSCVAIRSYILHKVSVGIC,inactive
2,CEMGFLEPL,inactive
3,KRITLWCLCFRSYDHEMMV,inactive
4,YIYLTQGTARNIDYT,0.047 ± 0.43
5,SIRVINKRHCCSSGDWREDR,1.78 ± 0.081
6,DYSIAVGYWSFHVN,inactive
7,KYFRNIYWHISRRIWAKAPG,inactive
8,FDEDRREV,inactive
9,VEALILSVRKCVFGLPVPAL,inactive
10,ELLFIDGWKST,inactive
11,RFFHYYVSNVWTSNPFSTYI,-0.42 ± 0.62
12,LENRSFNMMMFV,inactive
13,YISSVQGCPMEGGLPKSSAS,inactive
14,IGSFVKDKLSRRIGTGRMEI,inactive
15,RLVLYMPVLLSMVVTNWALL,0.872 ± 0.15
16,VLYSYRYSYSVGLCTEMHRF,inactive
17,INCLDFYTTVYNTRSWIFVH,inactive
18,VCFNYDLFYMIRMGFEAVHI,inactive
19,RTAVVWV,inactive
20,VLWDGF,inactive
21,NTPGYSELIVFGST,inactive
22,TQNGVCYRNPVFYGRRARKL,inactive
23,DVLTVMSQLVVMKTL,inactive

row,Substance,amyloid nucleation score
1,FSGFTVR,inactive
2,NGSGGWLNINNISEGRWRTG,inactive
3,DRSLMRS,inactive
4,RCRTDILYNFERHYLRVEYA,inactive
5,GSYTLYFVIWLFHIRFYGTR,inactive
6,RVLNAYSLEYKCISSMPWYL,1.49 ± 0.14
7,PNMSIPLLCLCDNISDFHRF,1.69 ± 0.12
8,CFNYRLDFTQNWYMLIQCCH,0.867 ± 0.24
9,EMRKAIRRL,inactive
10,SALGSSTSFYNGMRRPFRYH,inactive
11,TGMFL,-0.004 ± 0.2
12,SFLRIDVVWFSAFFGWSPFL,0.357 ± 0.54
13,NCELGYARPLGDAMLNRAWF,inactive
14,MGVIMEGMRFFFVWMQM,inactive
15,FYLHSFRLNHSLRDLSDLGE,inactive
16,SLVAFPLFAGCVIW,inactive
17,ANICVFFSLDWFCPLFLSHK,2.34 ± 0.079
18,VSVRYPLNKECFYDCL,inactive
19,LISMVYLNVRLCQ,inactive
20,IIGSFC,inactive
21,TSGKGFYMLSVGVRVYQWDI,inactive
22,EEPNG,inactive
23,TAIRIMMRV,inactive

row,Substance,amyloid nucleation score
1,GTIMMWLGVQRVLTASGKGG,inactive
2,MIVSQVCTRSHVMGRSLGAE,inactive
3,MLSVPDVVRFWMFKFYKFSW,inactive
4,RALKRFYNVIFYFRSYVPVS,inactive
5,RTPHELKFRCSFQKVWQGMV,inactive
6,LLNVTHSVAMTRTHGGVTYW,0.776 ± 0.17
7,RTSFLGVID,inactive
8,ASFFNILNPISIVVILKRFC,inactive
9,HVTQLNGVAYSCEI,inactive
10,VAYRTGSDG,inactive
11,LFRFS,inactive
12,SRKIFEGTIRIRLTDSASFS,inactive
13,GAVLLSGEEL,0.871 ± 0.17
14,SNTCHLINAKVDPVHERMLS,0.176 ± 0.85
15,NYWIHVNVAMRVNYYRFFMF,inactive
16,DYALI,inactive
17,IFLGYRNYDYFSFTVLVE,inactive
18,ICMSMNMSADPGMPAIMFNY,inactive
19,ITTCLMYHRLCECGSKVLGL,inactive
20,LRGCLKSVIDTSLG,inactive
21,CFELDVRDEA,inactive
22,KDRSCNALWGLDCLYGNKGC,-0.197 ± 0.61
23,IANCRIS,1.34 ± 0.094

row,Substance,amyloid nucleation score
1,GNFSRLDSCFTVVRARVKCN,inactive
2,CFDTSLSVPGPMCYWKTKHG,inactive
3,SILMMGNLFKLLRKF,inactive
4,CFSAASTVKNMIEGCCRGMY,inactive
5,LMFNGILNQCSVMYLNRIYK,2.97 ± 0.081
6,IIYILPLCPRV,inactive
7,NVIMCLRCQY,2.03 ± 0.1
8,MTYHDGTGLFGVVL,inactive
9,HSDCDRTVTSGVELDSYGWT,inactive
10,FLGDYRILSLLFYI,2.49 ± 0.053
11,TRWSVFKLRADDRNMQASKS,inactive
12,STELYVNLDQVSPYSVRQLT,inactive
13,SCSIIYRPPSIWRYSKRTSL,inactive
14,GDTHESFVGRTVYPDRLESH,inactive
15,TALAEQ,-0.402 ± 1.3
16,HHAVYIVVRMADKACDWGCC,1.84 ± 0.078
17,TGLNIILLLCFMMSLGES,inactive
18,FRLRGLKLTSNMDDWMLIKE,inactive
19,MRAGWLYFWASANGDNQWEA,inactive
20,LVIVRWNAVYTYIGFDF,inactive
21,YNQCWLTIDINFRYLLA,1.4 ± 0.15
22,TQNNNGRVETPGASTPKHPC,inactive
23,NNCRSLY,0.927 ± 0.21

row,Substance,amyloid nucleation score
1,RGTMLLRNISIVCQLYPLST,inactive
2,YVFKMWLGPSSLIEFDLKRH,2.88 ± 0.062
3,SWTFRTLSKCVYYSFCREMD,inactive
4,IELLCGLDIT,inactive
5,FDVVWL,inactive
6,WVESESQETHHIAM,-0.113 ± 1
7,HSLIVYHLS,inactive
8,AYMVTKLVKR,inactive
9,VYVSCRMWNFRKMMMPV,inactive
10,GNCGRSGINCHMTGTSVVRC,inactive
11,NWTYTAENPG,inactive
12,LYTGYVLAIMYWAVLARENT,-1.45 ± 2.5
13,HVLYRRSSPYCVRWCNITER,inactive
14,PKVRMAPVNERNDFFSVILG,inactive
15,LSDGSHLSECYGFT,inactive
16,TLNVVPR,inactive
17,GYQDAFIP,inactive
18,NTIHITTWDELVQLAQCDNL,inactive
19,YDTHWTVCLLSTCLTL,inactive
20,SNYWNWGRGYVCSRFRELVI,inactive
21,LLLIGINVKMFWSFRVWLCN,inactive
22,GLSYNFHLCQVLVIFMVDGS,1.66 ± 0.1
23,FILGWCGIYSTACPNTSTGT,inactive

row,Substance,amyloid nucleation score
1,RVTFWPFVVSAFRVMYGICK,inactive
2,DPYAGLDNLTRIWASKPSKY,inactive
3,ESWNRKVLRHVSVEWHWLV,inactive
4,SSARYPAGLIVLHWLGCLKA,inactive
5,KPSRNESLQMALLSYIYLFR,inactive
6,RQISLYFSFNRFSMYFTLNL,inactive
7,VHYIVNYRGRILV,inactive
8,SQVGWG,inactive
9,VLASSKGICPMPSTSEFSFH,inactive
10,FHSSFSVYCPFNSMLASV,0.005 ± 0.58
11,FEIYECQLAC,inactive
12,IQSSYSMYIEWL,inactive
13,NRIVTVLMFCWLEG,inactive
14,LKLWYPLSFIDVRAPRA,inactive
15,NFGQKQNIWAWTVYCPDPCE,inactive
16,NYHRDSDVLTIFVISCPFLR,inactive
17,FVTAKQCVVCRQ,inactive
18,CFSFYVGCGRMQEPPRLGAG,0.785 ± 0.18
19,SCILCIFPVRLVFYMM,inactive
20,GVDCQASILHPCLFF,inactive
21,FCRRSGSFVLDMTYWGMYRP,0.156 ± 0.32
22,TRITMASSREV,inactive
23,MFRWLAQWALLTTTSRPASQ,inactive

row,Substance,amyloid nucleation score
1,RVWMIGGYSDLFHWNSVLVS,inactive
2,WLFMIARTYR,inactive
3,IDALIYG,inactive
4,WLLEKYKLCMGWFFYSDFLT,inactive
5,FFKSLRV,inactive
6,LKNSL,inactive
7,LFIRQG,inactive
8,YLNVVWYGALTWSDARFRNL,inactive
9,WCTFKNLPLWYWTWCAFQGG,inactive
10,DMVLSEPFFFGLCFLDFWIF,inactive
11,CTPFTLECW,-0.193 ± 1.1
12,LILGTNYQIY,1.27 ± 0.17
13,EHNYSTASITSTLSTPNRAI,inactive
14,VISVGLVIKRLYSMWYLAAG,inactive
15,MWFTLKMYTMRCCFEVTLRK,inactive
16,TNNTKERYIHLSFMTKWWTF,inactive
17,MIGHFTYVGLWGSLATYVQV,inactive
18,RPSFLVGRFMTVLKSPRHDV,-0.692 ± 1.4
19,CDHCRDKCMANRMSSRSLRW,inactive
20,IRVMNEMYLFLNRVYFAFSY,inactive
21,NWGRKCLFSSWCLLYVDNGT,0.555 ± 0.2
22,LPILHSRPVIQETL,inactive
23,IKVWRGKVG,inactive
